From article PMC130038
Like-named read-outs stand apart in the source and are kept apart here.

Experiments:
Assay in all cases: EMSA
[1] = target: T1, *VLF-1 (HAHIS-VLF-1, very late expression factor 1) (Autographa californica multiple capsid …, UniProt Q06687 1-379)
T1 sequence: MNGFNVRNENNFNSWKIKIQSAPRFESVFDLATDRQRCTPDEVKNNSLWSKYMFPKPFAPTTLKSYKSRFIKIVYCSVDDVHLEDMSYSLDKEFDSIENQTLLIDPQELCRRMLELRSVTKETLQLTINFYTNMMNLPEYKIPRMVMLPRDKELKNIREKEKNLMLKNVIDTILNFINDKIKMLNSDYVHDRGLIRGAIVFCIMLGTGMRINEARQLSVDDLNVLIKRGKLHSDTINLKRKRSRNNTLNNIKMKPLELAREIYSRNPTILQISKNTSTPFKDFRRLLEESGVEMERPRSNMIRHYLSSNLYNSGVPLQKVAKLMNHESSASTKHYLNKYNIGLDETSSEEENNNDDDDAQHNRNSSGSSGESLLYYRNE

[2] = target: T1, *VLF-1 (HAHIS-VLF-1, very late …); remark: listed apart in the source
[3] = target: T1, *VLF-1 (HAHIS-VLF-1, very late …); remark: listed apart in the source
[4] = target: T1, *VLF-1 (HAHIS-VLF-1, very late …); remark: listed apart in the source

B1: substrate I, linear single-stranded DNA (4X12-2) (ssDNA)
DNA: TGGGTGAACCTGCAGGTGGGCAAAGATGTCCTAGCAATGTAATCGTCAAGCTTTATGCCGTT
binding result [1]: no binding

B2: substrate II, linear double-stranded DNA (4X12-2/4X12-5) (dsDNA)
DNA 1: B1 DNA
DNA 2: AACGGCATAAAGCTTGACGATTACATTGCTAGGACATCTTTGCCCACCTGCAGGTTCACCCA
binding result [1]: no binding

B3: substrate V, cruciform (4X12-2/4X12-1/4X12-3/4X12-4a) (structured_DNA)
DNA 1: B1 DNA
DNA 2: GACGCTGCCGAATTCTACCAGTGCCTTGCTAGGACATCTTTGCCCACCTGCAGGTTCACCC
DNA 3: CAACGGCATAAAGCTTGACGATTACATTGCTAGGACATGCTGTCTAGAGGATCCGACTATCGA
DNA 4: ATCGATAGTCGGATCCTCTAGACAGCATGTCCTAGCAAGGCACTGGTAGAATTCGGCAGCGT
binding result [2]: binds

B4: substrate IV, three-way junction (4X12-2/4X12-1/4X12-3) (structured_DNA)
DNA 1: B1 DNA
DNA 2: B3 DNA 2
DNA 3: B3 DNA 3
binding result [3]: binds

B5: substrate VII, hairpin hr DNA (v-hr1/v-hr3) (structured_DNA)
DNA 1: GGGGTTTGTTTTTCAAAACTAAACTCGCTTTACGAGTAGAATTCTACTTGTAACGCACAATCAAGGGATGATGTCAGGGG
DNA 2: CCCCTGACATCATCCCTTGATTGTGAGTTTAGTTTTGAAAAACAAACCCC
binding result [4]: binds
